Reference: the nanobody polyreactivity screen of Harvey et al. (2022)

Assay: yeast display, Sf9 membrane polyspecificity reagent, FACS + sequencing; frameworks hold sequencing errors
Procedure, shortened: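 A nanobody's polyreactivity label depends on the gate it was sorted from. Yeast display cells were stained with 10% biotinylated, detergent-solubilized Sf9 membrane reagent for 1 hour at 4 °C, enriched on streptavidin microbeads and sorted by FACS. The low and high (top ~1%) gates were set on anti-HA fluorescence for expression and streptavidin fluorescence for reagent binding.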

In the case of “QVQLVESGGGLVQAGGSLRLSCAASGSIFSSYAMGWYRQAPGKERELVAAISWRGGSTYYADSVKGRFTISRDNAKNTVYLQMNSLKPEDTAVYYCAAQYQYYGGRRYDYWGQGTQVTVSS”, the “polyreactivity (PSR sort gate)” value is reported as “high polyreactivity”.
With “QVQLVESGGGLVQAGGSLRLSCAASGRIFVKYVMGWYRQAPGKERELVAAISSSGGRTYYADSVKGRFTISRDNAKNTVYLPMNSLKPEDTAVYYCNAVRRRSSLKLDSWGQGTQVTVSS” the “polyreactivity (PSR sort gate)” value was “high polyreactivity”.
In the case of “QVQLVESGGGLVQAGGSLRLSCAASGRIYGIYAMGWYRQAPGKERDLVARITGGGSTNYADSVKGRFTISRDNAKYTVYLQMNSLKPEDTAVYYCAATVRRIVGNITRYDYWGQGTQVTVSS”, the “polyreactivity (PSR sort gate)” value is reported as “low polyreactivity”.
With “QVQLVQSGGGLVQAGGSLRLSCAASGRTLWSYVMGWYRQAPGKERELVAAITSGGTTYYADSVKGRFTISRDNAKNTVYLQMNSLKPEDTAVYYCNVYTKFVYAYDYWGQGTQVTVSS” the “polyreactivity (PSR sort gate)” value was “high polyreactivity”.
For “QVQLVESGGGLVQAGGSLRLSCAASGYTIRANAMGWYRQAPGKERELVAAISRSGGSTYYADSVKGRFTISRDNAKNTVYLQMNSLKPEDTAVYYCNTRQQYQFNYWGQGTQVTVSS”, the “polyreactivity (PSR sort gate)” value was “high polyreactivity”.
For “QVQLVESGGGLVQAGGSHRLSCAASGSIFYKNAMGWYRQAPGKERELVAAITKRGGTTYYADSVKGRFTISRDNAKNTVYLQMNSLKPEDTAVYYCAKYLGPASIVRYEYWGQGTQVTVSS”, the “polyreactivity (PSR sort gate)” value was “high polyreactivity”.
For “QDQLVESGGGLVQAGGSLRLSCAASGRIFTQNRMGWYRQAPGKERELVAVITSSGGSTYYADSVKGRFTISRDNAKNTVYLQMNSLKPEDTAVYYCAAQLVRYVGYYRFDYWGQGTQVTVSS”, the “polyreactivity (PSR sort gate)” value was “low polyreactivity”.
In the case of “QDQLVESVGGLVQAGGSLRLSCAASGSIFIGYAMGWYRQAPGKERELVAAITSGGSTYADSVKGRFTISRDNAKNTVYLQMNSLKPEDTAVYYCAARFFLVTLDYCGQGTQVTVSS”, the “polyreactivity (PSR sort gate)” value is reported as “low polyreactivity”.
In the case of “QVQLEESGGGLVQAGGSLRLSCAASGFIFVRNAMGWYRQAPGKERELVAAITRSGGSTSYADSVKGRFTISRDNAKNTVYLQMNSLKPEDTAVYYCAPQYGYWGQGTQVTVSS”, the “polyreactivity (PSR sort gate)” value is reported as “high polyreactivity”.
With “QVQLVESGGGLVQAGGSLRLSCAASGSTFSVYAMGWYRQAPGKERELVAAISSSGANTYYADSVKGRFTISRDNAKNTVYLQMNSLKPEDTAVYYCAAYVSGGYEYDYWGQGTQVTVSS” the “polyreactivity (PSR sort gate)” value was “low polyreactivity”.
In the case of “QVQLVESGGGLVQAGGSLRLSCAASGSIFLYYAMGWYRQAPGKERELVATITKGGGSTYYADSVKGRFTISRDNAKNTVYLQMNSLKPEDTAVYYCAADAAHSEYDYWGQGTLVTVSS”, the “polyreactivity (PSR sort gate)” value is reported as “high polyreactivity”.
With “QVQLVESGGGLVQAGGSLRLSCAASGSIFVVYTMGWYRQAPGKERELVAAITQNGGSSTYYADSVKGRFTISRDNAKNTVYLQMNSLKPEDTAVYYCNKDILSPVVRIFKYGYDMDYWGQGTQVTVSS” the “polyreactivity (PSR sort gate)” value was “low polyreactivity”.
In the case of “QVQLVESGGGLVQAGGSLRLSCAASGSIFFGNAMGWYRQAPGKERELVAASTTSGGSTYYADSVKGRFTISRDNAKNTVYLQMNSLKPEDTAVYYCNAEYRTGVDGPRSRGGDYWGQGTQVTVSS”, the “polyreactivity (PSR sort gate)” value is reported as “low polyreactivity”.
With “QVQLVESGGGLVQAGGSLRLSCAASGRTFSDYVMGWYRQAPGKERELVAAINIGGGSTYYADSVKGRFTISRDNAKNTVYLQMNSLKPEDTAVYYCAAESAGSYLDYYWAYGYWGQGTQVTVSS” the “polyreactivity (PSR sort gate)” value was “low polyreactivity”.
In the case of “QIQLVESGGGLVQAGGSLRLSCAASGGIFYINAMGWYRQAPGKERELVAAITESSDITYYADSVKGRFTISRDNAKNSVYLQINSLKPEDTAVYYCAAEFVRSGDDYWGQGTQVTVSS”, the “polyreactivity (PSR sort gate)” value is reported as “low polyreactivity”.
For “QFQLVESGRGLVQAGGSLRLSCAASGLIFRYYAMGWYRQAPGKERELVAAIRTGGSTYYADSVKGRFTISRDNAKNTVYLQMNSLKPEDTAVYYCAALLLSWYRTSYDFDYWGQGTQVTVSS”, the “polyreactivity (PSR sort gate)” value was “high polyreactivity”.
For “QVQLVESGGGLVQAGGSLRLSCAASGSNFFYNVMGWYRQAPGKERELVAAITRSGGRTYYADSVKGRFTISRDNAKNTVYLQMNSLKPEDTAVYYCAAALGGKFDYWGQGTQVTVSS”, the “polyreactivity (PSR sort gate)” value was “high polyreactivity”.
In the case of “QGQLVESGGGLVQAGGSLRLSCAASGGIFSDYAMGWYIQEPGKEREFVAAISVRGTSTDYADSVKGRFTISRDNAKNTVYLQMNSLKPEDTAVYYCNAQGAPQVRDVLPYEFDYWGQGTQVTVSS”, the “polyreactivity (PSR sort gate)” value is reported as “low polyreactivity”.
In the case of “QVQLVESGGGLVQAGGSLRLTCAASGSTFYYYTMGWYRQAPWKERELVAAITSAGSTHYADSVKGRFTISRDNAKNNVYLQMNSLKPEDTAVYYCAAKSHWWWRGYYYWGQGTQVTVSS”, the “polyreactivity (PSR sort gate)” value is reported as “high polyreactivity”.
For “QVQLVESGGGLVQAGVSLRLSCAASGFTFTTYVMGSYRQAPGKERELVAAISRRGTSTRYADSVKGRFTISRDNAKNTVYLQMNSLKPEDTAVYYCAADRPYSIVPYDYWGQGTQVTVSS”, the “polyreactivity (PSR sort gate)” value was “high polyreactivity”.
In the case of “QVQLVESGGGLVQAGGSLRLSCAASGSIIRSYTMGWYRQAPGKERELVASISRTGGSTHYADSVKGRFTISRDNAKNTVYLQMNSLKPEDTAVYYCNADTRRNRLMDYWGQGTQVTVSS”, the “polyreactivity (PSR sort gate)” value is reported as “high polyreactivity”.
In the case of “QVQLEESGGGLVQAGGSLRLSCAASGRIFWANAMGWSRQAPGKERELVAAINRRTGITYYADSVKGRFTISRDNAKNTVYLQMNSLKPEDTAVYYCNAGSSPIRQYYGQVWKKGGYWGQGTQVTVSS”, the “polyreactivity (PSR sort gate)” value is reported as “high polyreactivity”.
In the case of “QVQLVESGGGLVQAGGSLRLSCAASGRIFGFYARGWYRQAPGKEREFVADITSGGSTNYADSVKGRFTISRDNAKNTVYLQMNSLKPEDTAVYYCNALSYVWYRYPGNWDEDDYWGQGTQVTVSS”, the “polyreactivity (PSR sort gate)” value is reported as “low polyreactivity”.
In the case of “QVQHVESGGGLVQAGGSLRLSCAASGSIFIANAMGWYRQAPGKERELVAVINWGDGSTYADSVKGRFTISRDNAKNTVYLQMNSLKPEDTAVYYCNAPDEVNDVRYDYWGQGTQVTVSS”, the “polyreactivity (PSR sort gate)” value is reported as “low polyreactivity”.
For “QVQLVESGGGLVQAGGSLRLSCAASGRIVGYAMGWYRQAPGKERELVAAITGSTGSTYYADSVKGRFTISRDNAKNTVYLQMNSLKPEDTAVYYCATKYGRYVYYNHVTWMYYWGQGTQVTVSS”, the “polyreactivity (PSR sort gate)” value was “high polyreactivity”.
With “QVQLVESGGGLVQAGGSLRLSCAASGIIFYYNALGWYRQAPGKERELVAAIDDRGDSTYYADSVKGRFTISRDNAKNTVYLQMNSLKPEDTAVYYCAADRYVQLLGYFFEYDYWGQGTQVTVSS” the “polyreactivity (PSR sort gate)” value was “low polyreactivity”.
In the case of “QVQLVESGGGLVQAGGSLRLSCAASGSTSWRNTMGWYRQAPGKERELVAAIRNVGSTYYADSVKGLFTISRDNAKNTVYLQMNSLKPEDTAVYYCNARWRFLYDYWGQGTQVTVSS”, the “polyreactivity (PSR sort gate)” value is reported as “high polyreactivity”.
With “QVQLVESGGGLVQAGGSLRLSCAASGRIFGVNAMGWYRQAPGKERELVAAIDWSDGSTYYADSVKGRFTISRDNAKNTVYLQMNSLKPEDTAVYYCATDYSYGDYYDDEFPSDDFDYWGQGTQVTVSS” the “polyreactivity (PSR sort gate)” value was “low polyreactivity”.
With “QVQLEESGGGLVQAGGTLRLRCAASVIIYDDKTMGWYRQAPGKEMELVAPISSSRGSTYYADSVKGRFTISRDNAKNTVYLQMNSLKPEDTAVYYCAAAVYYTYPYIVFRNYPEFDYWGQGTQVSVSS” the “polyreactivity (PSR sort gate)” value was “low polyreactivity”.
For “QVQLVESGGGLVQAGGSLRLSCAASGRIFKGNGMGWYRQAPGKERELVAAISRSGGNTYYADSVKGRFTISRDNAKNTVYLQMNSLKPEDTAVYYCNVRYYTYRFLRFDYWGQGTQVTVSS”, the “polyreactivity (PSR sort gate)” value was “high polyreactivity”.
In the case of “QVQLVESGGGLVQAGGSLRLSCAASGITFWEYAMGWYRQAPGKERELVAAISRSGGSTYYADSVKGRFTISRDTAKNTVYLQMNSLKPEDTAVYYCAAYTRRPIYDYWGQGTQVTVSS”, the “polyreactivity (PSR sort gate)” value is reported as “high polyreactivity”.
With “QVQLVESGGGLFQAGGSLRLSCAASGSIINIYAMGWYRQAPGKERELVATITGIADSTYYADSVKGRFTISRDNAKNTVYLQMNSLKPEDTAVYYCAADKYVADYDYWGQGSQVTVSS” the “polyreactivity (PSR sort gate)” value was “low polyreactivity”.
With “QVQLVESGGGLVQAGGSLRLSCAASGFTFLRNAMGWYRQAPGKERELVAAINRDGGRTYYADSVKGRFTISRDNAKNTVYLQMNSLKPADTAVYYCATTSQATSGPRRKLYYYWGQGTQVTVSS” the “polyreactivity (PSR sort gate)” value was “high polyreactivity”.
For “QVQLVESGGGLVQAGGSLRLSCAASGSIFGRYGAMGWYRQAPGKDRELVAAIRTSGVSTYYADSVKGRYTISRDNAKKTVYLQMNSLKPEDTAVYYCAKGYTSYNLGKYGYWGQGTQVTVTS”, the “polyreactivity (PSR sort gate)” value was “high polyreactivity”.
In the case of “QVQLVESGGGLVQAGGSLRLSCDASGSIFAWYAMGWYRQAPGKERELVATITWSGGSTYYADSVKGRFTISRDNANNTVYLQMNSLKQEDTAVYYCAADRVWPYYQYDYWGQGTQVSVSS”, the “polyreactivity (PSR sort gate)” value is reported as “low polyreactivity”.
In the case of “QVQLVESGGVLVQAGGSLRLSCAPSGFTFYRYAMGWYRQAPGKESELVAAISYSGGRTYYADSVKGRFTISCDIAKNTVYLQMNSLKPEDTAVYYCNARASYGHQGRLGYARLYYWGQGTQVTVSS”, the “polyreactivity (PSR sort gate)” value is reported as “high polyreactivity”.
For “QVQLVESCGGLVQAGGSLRLSCAASGYIFLYNTMGWYRQAPWKERELVAAISFRAGSTYYADSVKGRFTISRDNAMNTVYLQMNSLKPEDTAVYYCAKRQRYYLYGHDYWGQGTQVTVSS”, the “polyreactivity (PSR sort gate)” value was “low polyreactivity”.
For “QVQLVESGGGLVQAGGSLRLSCAASGNTFRSYAMGWYRQAPGKERELVAAISGRGGSTYYADSVKGRFTISRDNAKNTVDLQMNSRKPEDTAVYYCAAESRRVNYANDYWGQGTQVTVSS”, the “polyreactivity (PSR sort gate)” value was “high polyreactivity”.
For “QVQHVESGGGLVQAGGSLRLSCAASGGIYYQNAMGWYRQAPGKERELVAAISGRGGRTYYADSVKGRFTISRDNAKNTVYLQMNSLKPEDTAVYYCNADQATFSLYHEMDYWGQGTQVTVSS”, the “polyreactivity (PSR sort gate)” value was “low polyreactivity”.
For “QVQLVESGGGLVQAGGSLRLSCSASGSTFVVYAMGWSRQAPGKERELVAAISESGSSTYYADSVKGRFTISRDNAKNTVYLQMNSLKPEDTAVYYCNALYYDWHPEYQVIFSDFYYWGQGTQVTVSS”, the “polyreactivity (PSR sort gate)” value was “low polyreactivity”.
With “QVQLVESGGGLVQAAASLRLSCAAYGITFNSYVMGWSRQAPGKERELVAVISRGGGITYYADSVKGRFTISRDNAKNTVYLQMNSLKPEDTAVYYCAADHTHVYVLYYNDNYWGQGTQVTVSS” the “polyreactivity (PSR sort gate)” value was “high polyreactivity”.
For “QVQLVESGGGLVQAGGSLRLSCAASGFTFTTYVMGWYRQAPGKERELVAAISRRGTSTRYADSVKGRFTISRDNAKITVYLQMNSLKTEDTAVYFCAADRPYSIVPYDYWGQGTQVTVSS”, the “polyreactivity (PSR sort gate)” value was “high polyreactivity”.
In the case of “QVQLVESGGGLVQAGGSLRLSCAASGRTFVDYAMGWYRQAPGKERELVAAISSSGASTYYADSVKGRFTISRDNAKNTVYLQMNSLKPEDTAVYYCAARRHRTYGYWGQGTQVTVSS”, the “polyreactivity (PSR sort gate)” value is reported as “high polyreactivity”.
